Among the data in publication PMC6747709 (2019) are koff values, retold here.

Positions count from the first letter of the chain named. Names and notes keep the numbering of the source. Where two headings read alike, the source gives them in different places.

Common to all, as to assay: SPR
(SPR reads the build-up and loss of mass on a sensor chip optically.)

Assay [1] has as its target T1, CD47 extracellular domain (UniProt Q08722, biotin (enzymatically biotinylated; stated for the SPR experiment)).
For assay [2], the target named is T1, CD47 extracellular domain. The source holds these as a separate data set.
Assay [3] addresses T1, CD47 extracellular domain. The source holds these as a separate data set.
The target in assay [4] is T1, CD47 extracellular domain. This is another data set of the same source.
The target in assay [5] is T1, CD47 extracellular domain. This is another data set of the same source.
Assay [6] has as its target T1, CD47 extracellular domain. The source holds these as a separate data set.

T1 sequence (Q08722 19-141): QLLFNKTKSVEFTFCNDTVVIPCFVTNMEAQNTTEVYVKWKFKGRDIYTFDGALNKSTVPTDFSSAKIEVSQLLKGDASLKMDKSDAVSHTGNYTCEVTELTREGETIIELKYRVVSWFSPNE

B1: Nb02 mutant M4 (VHH)
VHH: EVQLQASGGGLVQAGGSLRLSCAASGFTNERSQNMGWFRQAPGKEREGVACIQSRVVECWYADSVKGRFTISRDNAKNTVYLQMNSLKPEDTAVYYCAAPRAITGHSAVGEHMCDYWGQGTQVTVSS
Usually koff stands for a measure of how fast the partners let go of each other. Molecule B1 registered a koff in assay [1] of 0.000392 s⁻¹.

B2: Nb02 mutant M3 (VHH)
VHH: B1 VHH with S107V, A108F
In assay [2], B2 came in with an off-rate constant (koff) of 0.000312 s⁻¹.

B3: Nb02 quadruple mutant M7 (G107W, T108H, S109V, F110A) (VHH)
VHH: B1 VHH with Q53S, G105W, S107V
With B3, the koff in assay [3] was found to be 4.04e-05 s⁻¹.

B4: Nb02 mutant M1 (VHH)
VHH: B1 VHH with G105W, A108F
The molecule B4 displayed a dissociation rate constant (koff) in assay [4] of 0.000126 s⁻¹.

B5: Nb02 mutant M2 (VHH)
VHH: B1 VHH with G105W, H106T, S107V, A108F
In assay [5], B5 registered a koff of 2.73e-05 s⁻¹.

B6: Nb02 mutant M6 (VHH)
VHH: B1 VHH with G105W, S107V, A108F
As for B6, the off-rate (koff) in assay [6] was 0.000117 s⁻¹.
